Measured values: PMC7893173

Legend:
[1] = biological target: HSV-1 nuclear egress complex NEC220 (UL31 1–306 with UL34 1–220) (herpes simplex virus type 1) (UniProt P10215)
[2] = biological target: HSV-1 nuclear egress complex NEC220 (UL31 1–306 with UL34 1–220) (herpes simplex virus type 1) (UniProt P10215); remark: listed apart in the source
[3] = biological target: HSV-1 nuclear egress complex NEC220 (UL31 1–306 with UL34 1–220) (herpes simplex virus type 1) (UniProt P10215); remark: listed apart in the source

Q: “HSV-1 UL25∆44 Q72A (from UniProt P10209 45-580) (domain or fragment)” was tested. Which inhibition of NEC220-mediated budding of giant unilamellar vesicles in vitro (1 μM NEC220; not inhibitory at NEC:UL25 1:1, value at 1:10) (% reduction in budding) [1] did it give?
A: The inhibition of NEC220-mediated budding of giant unilamellar vesicles in vitro (1 μM NEC220; not inhibitory at NEC:UL25 1:1, value at 1:10) (% reduction in budding) was 90.

Q: With “UL25^native(45–94) peptide (from UniProt P10209 45-94)” as the molecule, how does the inhibition of NEC220-mediated budding of giant unilamellar vesicles in vitro (1 μM NEC220; NEC:peptide 1:0.1, 1:0.3, 1:0.6, 1:1 and 1:10; maximal effect at 1:1) (% reduction in budding) [2] read?
A: Its inhibition of NEC220-mediated budding of giant unilamellar vesicles in vitro (1 μM NEC220; NEC:peptide 1:0.1, 1:0.3, 1:0.6, 1:1 and 1:10; maximal effect at 1:1) (% reduction in budding) is 75.

B1: (EAEKAAK)7EAEK peptide (peptide)
peptide: EAEKAAKEAEKAAKEAEKAAKEAEKAAKEAEKAAKEAEKAAKEAEKAAKEAEK
Q: B1 was tested. Which inhibition of NEC220-mediated budding of giant unilamellar vesicles in vitro (1 μM NEC220; not inhibitory at NEC:peptide 1:1, value at 1:10) (% reduction in budding) [3] did it give?
A: Its inhibition of NEC220-mediated budding of giant unilamellar vesicles in vitro (1 μM NEC220; not inhibitory at NEC:peptide 1:1, value at 1:10) (% reduction in budding) is 50.
